Series [1] deals with the molecule itself. In words: SEC; gel filtration of purified UNC-13L C2A, wild type or K49E; calibrated with alcohol dehydrogenase (150 kDa), bovine serum albumin (66 kDa) and carbonic anhydrase (29 kDa); void volume 10.78mL.
Series [2] deals with T1, C. elegans UNC-13 long isoform residues 1-258 bearing the K49E mutation (C. elegans).
T1 chain: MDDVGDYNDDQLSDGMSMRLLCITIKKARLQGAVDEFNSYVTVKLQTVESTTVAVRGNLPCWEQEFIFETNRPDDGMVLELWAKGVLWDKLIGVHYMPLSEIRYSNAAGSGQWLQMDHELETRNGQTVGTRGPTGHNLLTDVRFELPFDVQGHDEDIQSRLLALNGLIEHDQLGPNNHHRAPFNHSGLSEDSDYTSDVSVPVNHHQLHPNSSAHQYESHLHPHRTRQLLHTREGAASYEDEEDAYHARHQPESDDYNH
In words: ITC.

Positions count from the first letter of the chain named. Names and notes keep the numbering of the source.

B1: UNC-13L C2A domain, wild type (recombinant, gel filtration) (domain or fragment)
chain: T1 chain with E49K
Turning to B1, the “stoichiometry N” value in series [1] worked out at 2.

B2: C. elegans UNC-10 residues 62-121 WT (domain or fragment)
chain: KLVGTQDDAICQICQKTKFADGIGHKCFYCQLRSCARCGGRAQSKNKAIWACSLCQKRQQ
In series [2], B2 showed a Ka of 789000 M⁻¹.

For the origin of these results see doi:10.1101/388868, “Heterodimerization of UNC-13/RIM regulates synaptic vesicle release probability but not priming” (bioRxiv, 2018).
